Measurements: patent US7867500B2, “Cofactor that modulates steroid receptor activities” (The United States of America as represented by the …, priority 2004, dated 2011)
Values belong to the molecule of their own block, whether it stands above or below them.

Tests used:
TIF2(1140C) = biological target: T1, TIF2(1140C) (Homo sapiens, UniProt Q15596); experiment: Mammalian two-hybrid assay in CV-1 cells with TIF2(1140C); assay type: cell-based
T1 construct: the PCR product of TIF2 with the TIF2-1140F and TIF2-1464R primers; expressed in transfected cells; host or cells: CV-1
T1 sequence (Q15596 1140-1464): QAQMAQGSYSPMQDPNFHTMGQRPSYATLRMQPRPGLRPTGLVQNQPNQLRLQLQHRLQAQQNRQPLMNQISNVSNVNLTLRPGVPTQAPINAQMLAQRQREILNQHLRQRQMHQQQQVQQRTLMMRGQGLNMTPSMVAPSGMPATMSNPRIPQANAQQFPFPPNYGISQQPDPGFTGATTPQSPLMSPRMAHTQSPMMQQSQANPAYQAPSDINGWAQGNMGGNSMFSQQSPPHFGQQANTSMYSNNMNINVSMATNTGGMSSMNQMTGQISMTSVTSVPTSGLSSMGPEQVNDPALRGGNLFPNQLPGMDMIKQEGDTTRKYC
Description: FIG. 2A-2C illustrate the isolation and characterization of the partial clone of the protein that binds to TIF2.4. […] Five clones were obtained but only two (clones I and V) contained a protein that was needed for colony growth in the presence of the pSos/TIF2.4 fusion protein. After initial screening, only clone I (also named 6-6CL1) was selected for further investigation. FIG. 2B and FIG. 2C illustrate the selectivity of 6-6CL1 interactions with TIF2.4 in mammalian two-hybrid assays. Triplicate samples of CV-1 cells in 24-well plates were transiently transfected with the indicated GAL-DBD and VP16-AD plasmids along with the GAL4-regulated reporter, pFRLuc. The relative luciferase activity, normalized for the activity of the internal Renilla control, was determined and plotted as the average±S.D. The much lower activity of GAL/TIF2.4m123 was previously shown not to be due to unequal levels of protein expression (He et al., 2002). Similar results were obtained in three additional experiments. […] Triplicate samples of CV-1 cells in 24-well plates were analyzed as in (B&C) after being transiently transfected with GAL±6-6CL1 constructs and pFRLuc reporter along with VP16 chimeras of SRC-1 (FIG. 2D) or TIF2 (FIG. 2E) segments. Similar results for SRC-1 were obtained in two additional experiments (ND=not determined). […]

RAR α = biological target: T2, RAR α (Homo sapiens, UniProt P10276); experiment: Mammalian two-hybrid assay with VP16 full length receptor: RARα; assay type: cell-based; conditions: 1 μM 9-cis-retinoic acid
T2 construct: plus VP16 fused to the indicated full length receptors; expressed in transfected cells; host or cells: CV-1
T2 sequence (P10276 1-462): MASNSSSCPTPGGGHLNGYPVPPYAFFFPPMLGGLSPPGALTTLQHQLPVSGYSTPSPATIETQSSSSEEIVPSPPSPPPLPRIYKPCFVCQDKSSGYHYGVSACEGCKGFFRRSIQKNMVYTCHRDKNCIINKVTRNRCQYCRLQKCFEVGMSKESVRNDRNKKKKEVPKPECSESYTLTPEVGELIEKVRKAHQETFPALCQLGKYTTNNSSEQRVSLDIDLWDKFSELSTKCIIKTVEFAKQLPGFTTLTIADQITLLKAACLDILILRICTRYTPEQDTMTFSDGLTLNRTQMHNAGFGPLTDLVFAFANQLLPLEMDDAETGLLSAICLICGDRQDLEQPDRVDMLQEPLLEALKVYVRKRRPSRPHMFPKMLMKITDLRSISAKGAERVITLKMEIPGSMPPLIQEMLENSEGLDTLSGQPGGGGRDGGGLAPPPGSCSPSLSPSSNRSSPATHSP
Protocol: FIG. 6C1-3 illustrate the association of STAMP with assorted steroid/nuclear receptors, including glucocorticoid receptors (GRs), progesterone receptors (PRs), androgen receptors (ARs), estrogen receptors (ER α or β), PPARγ2 receptors, thyroid receptor beta (TR), and retinoid (α) receptors (RAR α or RXR α). Triplicate samples of CV-1 cells were transfected (as described for FIG. 6B) with GAL, or GAL fused to TIF2.4 or STAMP834C, plus VP16 fused to the indicated full length receptors and incubated with the appropriate steroid (1 μM Dex, 20 nM R5020, 1 nM R1881, 0.1 μM triiodothyronine, or 1 μM estradiol, roziglitazone, or 9-cis-retinoic acid). The average relative luciferase activities of 2-3 experiments±S.E.M. were then plotted. FIG. 6C1 illustrates the effects of STAMP association upon GR, PR and AR induced expression. FIG. 6C2 illustrates the effects of STAMP association upon ERα, ERβ and PPARγ2 induced expression. FIG. 6C3 illustrates the effects of STAMP association upon TR, RARα and RXRα induced expression.
These assays were conducted as described (He et al., 2002). […]

interaction with TIF2(1140C) (TIF2(1140C)): does not interact
B1: 6-6CL1: STAMP fragment amino acids 623-834, coactivator interaction domain (CID) (protein)
chain: ENTPKENSMKVREWNNKGGHCCKLETQELEPKFNLMQILQDNGNLSKMQARIAFSAYLQHVQIRLMKDSGGQTFSASWAAKEDEQMELVVRFLKRASNNLQHSLRMVLPSRRLALLERRRILAHQLGDFIIVYNKETEQMAEKKSKKKVEEEEEDGVNMENFQEFIRQASEAELEEVLTFYTQKNKSASVFLGTHSKISKNNNNYSDSGAKG

interaction with retinoid (α) receptor (RAR α): lack of interaction
B2: STAMP834C: STAMP fragment amino acids 834-1277, receptor interaction domain (RID) (protein)
chain: GDHPETIMEEVKIKPPKQQQTTEIHSDKLSRFTTSAEKEAKLVYSNSSSGPTATLQKIPNTHLSSVTTSDLSPGPCHHSSLSQIPSAIPSMPHQPTILLNTVSASASPCLHPGAQNIPSPTGLPRCRSGSHTIGPFSSFQSAAHIYSQKLSRPSSAKAGSCYLNKHHSGIAKTQKEGEDASLYSKRYNQSMVTAELQRLAEKQAARQYSPSSHINLLTQQVTNLNLATGIINRSSASAPPTLRPIISPSGPTWSTQSDPQAPENHSSSPGSRSLQTGGFAWEGEVENNVYSQATGVVPQHKYHPTAGSYQLQFALQQLEQQKLQSRQLLDQSRARHQAIFGSQTLPNSNLWTMNNGAGCRISSATASGQKPTTLPQKVVPPPSSCASLVPKPPPNHEQVLRRATSQKASKGSSAEGQLNGLQSSLNPAASVPITSSTDPAHTKI
